Test results from the supplement of paper PMC9732359.
± gives the uncertainty stated by the source.

Assay: protein stability index of a GFP-peptide fusion (yeast GPS) (PSI 1-4); higher = more stable; sorted into four equal gates, so the index is relative within each strain
Outline: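 The protein stability index of a peptide was calculated by multiplying its read frequency in each gate by that gate's number and adding the products. The peptides were tiled 17-residue stretches of yeast proteins, fused downstream of GFP on a Cherry-expressing plasmid and carried in yeast as a pooled library. Mid-log cultures in leucine-free medium were sorted into four equal gates by GFP/Cherry ratio, and each gate's plasmids were PCR-amplified and Illumina-sequenced.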

| Sequence | protein stability index (doa10∆) | protein stability index (pdr5∆) | protein stability index (san1∆) | protein stability index (ubr1∆) |
| --- | --- | --- | --- | --- |
| RSSSASNEFVPNTSDNN [SWI1] | 2.72 ± 0.068 | 2.77 ± 0.09 | 2.69 ± 0.059 | 2.9 ± 0.063 |
| YASKAVPHYNRLDSYKV [RPL25] | 2.11 ± 0.14 | 2.7 ± 0.1 | 2.34 ± 0.12 | 1.47 ± 0.11 |
| TLFVRDQDSAVVSSNIK [QCR2] | 2.67 ± 0.23 | 2.52 ± 0.2 |  | 2.67 ± 0.17 |
| ELISLRKILESSNIVNE [YIL149C/MLP2] | 2.17 ± 0.089 | 2.53 ± 0.068 | 2.33 ± 0.064 | 2.12 ± 0.1 |
| DIYFKLKKLEKEYELLT [RPT3] | 2.74 ± 0.074 | 2.51 ± 0.081 | 2.29 ± 0.14 | 1.98 ± 0.057 |
| KQINHQGEEEELIALNL [RPB4] | 3.34 ± 0.15 | 3.59 ± 0.13 | 3.2 ± 0.076 | 3.42 ± 0.11 |
| DSQIVTPGELVTDDPIW [RRP4] | 2.78 ± 0.19 | 3.07 ± 0.11 | 2.76 ± 0.095 | 2.94 ± 0.077 |
| NTAAALVSLLDENDSKK [YAR002W/NUP60] | 3.13 ± 0.097 | 2.95 ± 0.12 | 3.01 ± 0.087 | 3.01 ± 0.099 |
| VDLTSSNFADSADYEIL [YDL116W/NUP84] | 2.84 ± 0.087 | 3.12 ± 0.098 | 3.31 ± 0.093 | 3.29 ± 0.09 |
| AGYTTHLMKRIQKGPVR [RPS17A] | 2.2 ± 0.11 | 2.97 ± 0.15 | 1.86 ± 0.16 | 2.57 ± 0.096 |
| SQNDGFVIIRGSQILSG [RPO31] |  | 3.13 ± 0.17 | 2.86 ± 0.16 | 2.61 ± 0.29 |
| YGTENKDGEDIIFNYVP [CSL4] | 3.3 ± 0.14 | 3.21 ± 0.1 | 2.92 ± 0.085 | 3.12 ± 0.065 |
| DRQLHEISTSKKNNLEF [RPN14] | 2.96 ± 0.064 | 3.13 ± 0.075 | 2.93 ± 0.071 | 3.17 ± 0.093 |
| ESPLSVAIQQGDIKPEF [YML103C/NUP188] | 2.23 ± 0.11 | 1.44 ± 0.08 | 1.95 ± 0.11 | 2.38 ± 0.075 |
| TPDTKNFFHAKKKDPVN [SNF12] | 3.29 ± 0.097 | 2.97 ± 0.079 | 3.1 ± 0.068 | 3.17 ± 0.1 |
| LFSPEEVRAISVAKIRF [RPO21] | 2.17 ± 0.1 | 2.31 ± 0.088 | 2.41 ± 0.096 | 2.39 ± 0.07 |
| RSAWNNNNDNDANRNAN [GRR1] | 2.55 ± 0.041 | 2.65 ± 0.036 | 2.62 ± 0.034 | 2.7 ± 0.039 |
| TATLAWGVNLPAHTVII [BRR2] | 1.26 ± 0.065 | 1.4 ± 0.067 | 1.81 ± 0.089 | 1.79 ± 0.064 |
| AVKRGTCAVGVKGKNCV [PRE6] | 1.06 ± 0.11 | 1.62 ± 0.18 | 1.39 ± 0.27 | 2.51 ± 0.17 |
| SSAHLIRINDEPILGQI [YML103C/NUP188] | 2.59 ± 0.084 | 2.9 ± 0.077 | 2 ± 0.14 | 2.45 ± 0.069 |
| AMICEAKGLIENIFEGE [YJR042W/NUP85] | 2.94 ± 0.13 | 2.93 ± 0.086 | 2.5 ± 0.1 | 2.81 ± 0.064 |
| QNVISLGSLTVEDYLSS [RPC82] | 2.83 ± 0.095 | 2.84 ± 0.078 | 2.06 ± 0.12 | 3 ± 0.074 |
| SLEEIIAEGQKKFATVP [RPP2B] | 2.77 ± 0.061 | 2.89 ± 0.058 | 2.93 ± 0.061 | 2.59 ± 0.04 |
| IYRVRVRRGNRKRPVPK [RPL15A] |  | 2.86 ± 0.2 |  | 3.2 ± 0.14 |
| KLQKYGAAVRLTGSDRV [RPN7] |  | 3.62 ± 0.27 |  | 2.99 ± 0.14 |
| FNTLVRIMSTRCMMAAQ [DIS3] | 1.53 ± 0.07 | 1.73 ± 0.058 | 1.61 ± 0.076 | 1.58 ± 0.036 |

| Sequence | protein stability index (doa10∆) | protein stability index (pdr5∆) | protein stability index (san1∆) | protein stability index (ubr1∆) |
| --- | --- | --- | --- | --- |
| GKEFGTTPEKPEETPLE [FAS2] | 2.77 ± 0.095 | 2.7 ± 0.076 | 2.6 ± 0.059 | 2.81 ± 0.069 |
| ADVFTDDDLFETLVLSY [YCG1] | 2.46 ± 0.09 | 2.65 ± 0.056 | 2.85 ± 0.064 | 2.06 ± 0.041 |
| PSGRTRGRSVMKESVVE [ESC2] |  |  | 2.99 ± 0.19 | 3.67 ± 0.22 |
| LMEIHNILKVDSNSSSS [RGR1] | 2.58 ± 0.06 | 2.67 ± 0.06 | 2.63 ± 0.064 | 2.42 ± 0.049 |
| TMFTAEQSELLKAQITS [SNF2] | 2.19 ± 0.046 | 2.5 ± 0.056 | 2.57 ± 0.058 | 2.49 ± 0.036 |
| ALTKFEASQVTEKQRKK [RPL35A] | 3.2 ± 0.27 | 2.57 ± 0.1 | 3.1 ± 0.064 | 3.17 ± 0.061 |
| TVEALDFREKALYIAMM [RET1] | 2.73 ± 0.1 | 3.03 ± 0.096 | 3.29 ± 0.076 | 2.59 ± 0.082 |
| DNVSFIEEAKSIRRQDY [REC8] | 2.85 ± 0.12 | 3.06 ± 0.11 | 3.28 ± 0.09 | 3.15 ± 0.08 |
| IYSRDIGAELKREESES [SNF2] | 3.06 ± 0.087 | 3.19 ± 0.086 | 3.08 ± 0.066 | 3.01 ± 0.071 |
| KIIPKDISATQLPKQLW [ITC1] | 2.22 ± 0.11 | 2.43 ± 0.14 | 2.45 ± 0.12 | 2.32 ± 0.13 |
| TQKDSARVSPRNNVANK [YAR002W/NUP60] | 3.22 ± 0.1 | 3.52 ± 0.12 | 3.23 ± 0.096 | 3.02 ± 0.072 |
| ENAYKSENAPSASSKEF [YAR002W/NUP60] | 2.18 ± 0.066 | 1.86 ± 0.062 | 2.15 ± 0.078 | 2.15 ± 0.074 |
| KTDFAKIINKPNELSQI [RPC82] | 3.09 ± 0.12 | 3.13 ± 0.12 | 2.84 ± 0.091 | 3.12 ± 0.14 |
| STPDQRKRVYNIKFLSK [ESC2] | 3.34 ± 0.22 |  | 2.81 ± 0.08 | 2.93 ± 0.12 |
| HVIQIPLNKPLLTEELA [TAF14] | 2.2 ± 0.053 | 2.39 ± 0.037 | 2.49 ± 0.053 | 2.32 ± 0.039 |
| LPLFYDLLNAASIESAD [IRR1] | 2.08 ± 0.047 | 2.17 ± 0.056 | 2.27 ± 0.047 | 2.78 ± 0.048 |
| NNNDNNNSNTVASSTNF [SWI1] | 2.92 ± 0.032 | 3.089 ± 0.03 | 2.94 ± 0.031 | 3.021 ± 0.028 |
| EAMYKLQLASLQQKQRD [SMC3] | 2.71 ± 0.091 | 2.76 ± 0.078 | 2.52 ± 0.087 | 2.54 ± 0.063 |
| ILLAGRFRGKRVVYLKH [RPL6A] | 1.69 ± 0.078 | 2.17 ± 0.061 | 2.04 ± 0.1 | 2.12 ± 0.056 |
| ADDEKSDEEEVTEMSNN [BRR2] | 3 ± 0.06 | 3.02 ± 0.042 | 2.84 ± 0.054 | 3.1 ± 0.048 |
| ALASIQTFNFDSFENYF [RPN12] | 2.65 ± 0.048 | 2.77 ± 0.069 | 2.51 ± 0.096 | 2.82 ± 0.054 |
| KRDAKAAGSYYVEAQHK [RPL7A] | 3.21 ± 0.086 | 3.19 ± 0.046 | 3.22 ± 0.042 | 2.91 ± 0.054 |
| DADTEDPHSASLINSHL [RPC82] | 2.9 ± 0.084 | 3.27 ± 0.085 | 2.97 ± 0.078 | 3 ± 0.13 |
| TKAIQGCSKICDLSSKF [YCS4] | 3.15 ± 0.083 | 3.2 ± 0.069 | 3.37 ± 0.037 | 3.06 ± 0.098 |
| IDLCHDFPHLTPKLQTQ [YCS4] | 2.6 ± 0.042 | 2.65 ± 0.038 | 2.63 ± 0.042 | 2.49 ± 0.035 |
